The source of these data is PMC10831263.

The target in this assay is T1, his-tagged NCOA4 (383–522nd) recombinant protein, WT (human), Q13772.
T1 chain: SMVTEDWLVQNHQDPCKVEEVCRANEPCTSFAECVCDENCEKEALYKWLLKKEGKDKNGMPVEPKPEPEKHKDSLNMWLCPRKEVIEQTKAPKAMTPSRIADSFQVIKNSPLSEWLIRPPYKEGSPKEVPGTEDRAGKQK
The assay is described as follows: nonreducing gel electrophoresis; purified his-tagged NCOA4 (383–522nd) WT or mutants on a nonreducing gel, with or without β-ME (10 mM) or DTT (5 mM); the reductants converted the dimer into monomers. The following applies: remark: other sources report otherwise.

B1: his-tagged NCOA4 (383–522nd) recombinant protein, WT, Q13772-1 383-522 (domain or fragment)
chain: SMVTEDWLVQNHQDPCKVEEVCRANEPCTSFAECVCDENCEKEALYKWLLKKEGKDKNGMPVEPKPEPEKHKDSLNMWLCPRKEVIEQTKAPKAMTPSRIADSFQVIKNSPLSEWLIRPPYKEGSPKEVPGTEDRAGKQK
As usually defined, the stoichiometry N is a count of units in the complex or per binding partner. Consider B1, for which the stoichiometry N is 2.
